According to publication PMC4963475 (2016):
Non-standard residues stand in square brackets, D forms with d. No end group written: not given here. pT = C[C@@H](OP(=O)(O)O)[C@H](N)C(=O)O; Nle = CCCC[C@H](N)C(=O)O

B1: MELT12p peptide (MDIT phosphorylated), Btn-PEG2-C-PEG2-EDDKND-Nle-DI-Tp-KSYTIEIN-amide (peptide)
peptide: EDDKNDMDITKSYTIEIN
modifications: N-terminal Btn-PEG2-C-PEG2 (biotin, PEG2, cysteine, PEG2); Nle (norleucine) at position 7 of the letters, written here as M; phosphothreonine (Tp) at position 10 of the letters (MDIT); C-terminal amide
B2: MELT16p peptide, ENHKND-NIe-DI-Tp-QSC-NIe-VEIDY-amide (peptide)
peptide: ENHKND[Nle]DI[pT]QSC[Nle]VEIDY-NH2
modifications: N-terminus assumed
SMILES: CCCC[C@H](NC(=O)[C@H](CC(=O)O)NC(=O)[C@H](CC(N)=O)NC(=O)[C@H](CCCCN)NC(=O)[C@H](Cc1c[nH]cn1)NC(=O)[C@H](CC(N)=O)NC(=O)[C@@H](N)CCC(=O)O)C(=O)N[C@@H](CC(=O)O)C(=O)N[C@H](C(=O)N[C@H](C(=O)N[C@@H](CCC(N)=O)C(=O)N[C@@H](CO)C(=O)N[C@@H](CS)C(=O)N[C@@H](CCCC)C(=O)N[C@H](C(=O)N[C@@H](CCC(=O)O)C(=O)N[C@H](C(=O)N[C@@H](CC(=O)O)C(=O)N[C@@H](Cc1ccc(O)cc1)C(N)=O)[C@@H](C)CC)C(C)C)[C@@H](C)OP(=O)(O)O)[C@@H](C)CC
B3: MELT12 peptide (unphosphorylated), Btn-PEG2-C-PEG2-EDDKND-Nle-DI-T-KSYTIEIN-amide (peptide)
peptide: EDDKNDMDITKSYTIEIN
modifications: N-terminal Btn-PEG2-C-PEG2 (biotin, PEG2, cysteine, PEG2); Nle (norleucine) at position 7 of the letters, written here as M; C-terminal amide

Legend:
[1] = biological target: Bub1(1–553)/Bub3 complex (3×FLAG–Bub1(1–553) with untagged Bub3) (UniProt O43683 1-553; O43684 1-328); experiment: MST
Sequence of Bub1(1–553)/Bub3 complex (3×FLAG–Bub1(1–553) with untagged Bub3) (O43683 1-553, chain 1 of 2): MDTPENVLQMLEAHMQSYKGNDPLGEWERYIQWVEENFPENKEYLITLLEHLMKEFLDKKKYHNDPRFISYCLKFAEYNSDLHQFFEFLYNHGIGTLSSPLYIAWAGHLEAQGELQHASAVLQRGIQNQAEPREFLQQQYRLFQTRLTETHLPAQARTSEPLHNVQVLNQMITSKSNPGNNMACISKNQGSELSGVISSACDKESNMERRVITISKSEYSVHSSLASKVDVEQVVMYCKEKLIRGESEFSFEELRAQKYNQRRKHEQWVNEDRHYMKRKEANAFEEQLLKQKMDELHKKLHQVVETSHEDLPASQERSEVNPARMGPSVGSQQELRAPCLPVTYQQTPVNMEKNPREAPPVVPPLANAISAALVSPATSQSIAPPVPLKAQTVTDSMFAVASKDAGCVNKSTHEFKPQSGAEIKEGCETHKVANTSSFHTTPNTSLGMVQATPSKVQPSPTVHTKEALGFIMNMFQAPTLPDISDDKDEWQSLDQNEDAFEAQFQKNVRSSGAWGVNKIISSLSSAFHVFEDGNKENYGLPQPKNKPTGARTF
Sequence of Bub1(1–553)/Bub3 complex (3×FLAG–Bub1(1–553) with untagged Bub3) (O43684 whole entry, chain 2 of 2): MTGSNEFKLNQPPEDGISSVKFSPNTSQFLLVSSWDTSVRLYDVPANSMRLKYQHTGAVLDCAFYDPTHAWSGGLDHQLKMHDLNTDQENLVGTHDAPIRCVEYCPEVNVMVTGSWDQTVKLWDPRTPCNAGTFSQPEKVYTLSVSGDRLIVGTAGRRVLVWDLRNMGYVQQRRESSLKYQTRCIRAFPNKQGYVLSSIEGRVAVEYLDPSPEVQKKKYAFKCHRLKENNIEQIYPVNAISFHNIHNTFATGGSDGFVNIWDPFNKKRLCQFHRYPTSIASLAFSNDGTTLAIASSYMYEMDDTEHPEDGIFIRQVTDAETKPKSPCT

[2] = biological target: T1, BubR1/Bub3 complex (3×FLAG–BubR1 with untagged Bub3) (UniProt O60566 1-1050; O43684 1-328); experiment: MST
T1 sequence (O60566 whole entry, chain 1 of 2): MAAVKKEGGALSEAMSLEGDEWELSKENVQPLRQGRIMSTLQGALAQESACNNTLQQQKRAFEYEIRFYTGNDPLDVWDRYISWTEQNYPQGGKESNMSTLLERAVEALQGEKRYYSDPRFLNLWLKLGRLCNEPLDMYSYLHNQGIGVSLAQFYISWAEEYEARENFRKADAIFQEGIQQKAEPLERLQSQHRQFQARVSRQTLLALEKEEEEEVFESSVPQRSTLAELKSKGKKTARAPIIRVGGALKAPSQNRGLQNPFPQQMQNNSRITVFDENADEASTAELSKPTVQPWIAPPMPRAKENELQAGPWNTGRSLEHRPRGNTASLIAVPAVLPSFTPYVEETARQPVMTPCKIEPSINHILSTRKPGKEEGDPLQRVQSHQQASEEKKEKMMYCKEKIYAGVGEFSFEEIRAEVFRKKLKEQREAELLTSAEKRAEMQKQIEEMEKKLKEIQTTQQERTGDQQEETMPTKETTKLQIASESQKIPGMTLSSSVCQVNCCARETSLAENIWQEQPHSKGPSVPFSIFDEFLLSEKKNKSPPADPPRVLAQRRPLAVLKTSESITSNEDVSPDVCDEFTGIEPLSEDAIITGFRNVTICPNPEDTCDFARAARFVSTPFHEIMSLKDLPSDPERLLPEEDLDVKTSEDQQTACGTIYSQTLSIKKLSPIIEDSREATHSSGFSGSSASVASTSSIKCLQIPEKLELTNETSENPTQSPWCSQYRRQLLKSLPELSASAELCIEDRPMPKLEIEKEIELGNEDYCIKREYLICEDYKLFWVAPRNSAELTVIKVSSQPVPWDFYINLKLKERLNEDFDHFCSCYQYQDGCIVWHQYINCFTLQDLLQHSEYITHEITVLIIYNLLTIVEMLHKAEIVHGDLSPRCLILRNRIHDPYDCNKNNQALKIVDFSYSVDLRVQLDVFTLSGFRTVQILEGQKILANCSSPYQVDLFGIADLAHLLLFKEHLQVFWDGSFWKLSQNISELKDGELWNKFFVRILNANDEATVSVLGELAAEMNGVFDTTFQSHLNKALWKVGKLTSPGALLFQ
T1 sequence (O43684 whole entry, chain 2 of 2): as the sequence (O43684 whole entry, chain 2 of 2) above

[3] = biological target: T1, BubR1/Bub3 complex (3×FLAG–BubR1 with …); experiment: MST; 150 mM NaCl
[4] = biological target: T1, BubR1/Bub3 complex (3×FLAG–BubR1 with …); experiment: MST; 200 mM NaCl
[5] = biological target: T1, BubR1/Bub3 complex (3×FLAG–BubR1 with …); experiment: MST; 0 mM NaCl
[6] = biological target: T1, BubR1/Bub3 complex (3×FLAG–BubR1 with …); experiment: MST; 50 mM NaCl

Row | Binder | Kd [1] [nM] | Kd [2] [nM] | Kd [3] [nM] | Kd [4] [nM] | Kd [5] [nM] | Kd [6] [nM]
1 | B1 | 579 | 258 | 379 | 936 | 82 | 259
2 | B2 | 757 | 286 | – | – | – | –
3 | B3 | > 379000 | > 195000 | – | – | – | –
